Numbering of substitutions follows the chain as printed. Values joined by “and” are separate entries in the source; they are usually repeats but may differ in a detail not shown here. Identical values can stand only once.
B1: 153 VF-DART (bispecific antibody, not shown: small tags and cut ends)
chain 1: QSVLTQPPSVSAAPGQKVTISCSGSSSNIGNNYVSWYQQLPGTAPKLLIYDNNKRPSGIPDRFSGSKSGTSATLGITGLQTGDEADYYCGTWDSSLSGVVFGGGTKLTVLGGGSGGGGEVQLVESGGGLVQPGGSLRLSCAASGFTFSTYAMNWVRQAPGKGLEWVGRIRSKYNNYATYYADSVKGRFTISRDDSKNSLYLQMNSLKTEDTAVYYCVRHGNFGNSYVSWFAYWGQGTLVTVSS
chain 2: QAVVTQEPSLTVSPGGTVTLTCRSSTGAVTTSNYANWVQQKPGQAPRGLIGGTNKRAPWTPARFSGSLLGGKAALTITGAQAEDEADYYCALWYSNLWVFGGGTKLTVLGGGGSGGGGEVQLVQSGAEVKKPGASVKVSCKASGYTFTSYGISWVRQAPGQGLEWMGWISAYNGNTNYAQKLQGRVTMTTDTSTSTAYMELRSLRSDDTAVYYCATIDTANAFGIWGQGTMVTVSS
modifications: One interchain disulfide between the Linker 2 cysteines; these linkers are left out of the letters.
B2: 154 VF-DART (bispecific antibody, not shown: small tags and cut ends)
chain 1: B1 chain 1 with G98S, V99Y, G103T, L107V
chain 2: B1 chain 2 with N221T, G224D
B3: 35 EK-DART (bispecific antibody)
chain 1: QSVLTQPPSVSAAPGQKVTISCSGSSSNIGNNYVSWYQQLPGTAPKLLIYDNNKRPSGIPDRFSGSKSGTSATLGITGLQTGDEADYYCGTWDSSLSAVVFGGGTKLTVLGGGSGGGGEVQLVESGGGLVQPGGSLRLSCAASGFTFNTYAMNWVRQAPGKGLEWVARIRSKYNNYATYYADSVKDRFTISRDDSKNSLYLQMNSLKTEDTAVYYCVRHGNFGNSYVSWFAYWGQGTLVTVSSGGCGGGKVAALKEKVAALKEKVAALKEKVAALKE
chain 2: QAVVTQEPSLTVSPGGTVTLTCRSSTGAVTTSNYANWVQQKPGQAPRGLIGGTNKRAPWTPARFSGSLLGGKAALTITGAQAEDEADYYCALWYSNLWVFGGGTKLTVLGGGGSGGGGEVQLVQSGAEVKKPGASVKVSCKASGYTFTSYGISWVRQAPGQGLEWMGWISAYNGNTNYAQKLQGRVTMTTDTSTSTAYMELRSLRSDDTAVYYCATIDTASAFDIWGQGTMVTVSSGGCGGGEVAALEKEVAALEKEVAALEKEVAALEK

What was measured:
[1] = target: human soluble CD3 (human) (UniProt P07766); assay: SPR Biacore pH 7.4
[2] = target: human soluble CD3 (human) (UniProt P07766); assay: SPR Biacore affinity
[3] = target: human soluble CD3 (human) (UniProt P07766); assay: SPR Biacore pH 7.4, average
[4] = target: human soluble CD3 (human) (UniProt P07766); assay: SPR
[5] = target: human soluble CD3 (human) (UniProt P07766); assay: SPR Biacore
[6] = target: human soluble CD3 (human) (UniProt P07766); assay: SPR Biacore 3000, antigen immobilised

human soluble CD3 (human), sequence (P07766 23-126, chain 1 of 2): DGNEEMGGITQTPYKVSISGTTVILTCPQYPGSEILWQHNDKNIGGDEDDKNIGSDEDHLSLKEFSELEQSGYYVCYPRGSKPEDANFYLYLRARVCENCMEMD
human soluble CD3 (human), sequence (P04234 22-105, chain 2 of 2, further chain): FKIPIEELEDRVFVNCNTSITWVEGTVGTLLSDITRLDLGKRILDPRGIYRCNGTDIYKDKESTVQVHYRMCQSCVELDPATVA

Row | Binder | Kd [1] | koff [1] | kon [1] | t½ [1] | Kd [2] [nM] | Kd [3] [nM] | Kd [4] [nM] | Kd [5] [nM] | koff [5] [s⁻¹] | kon [5] [M⁻¹ s⁻¹] | Kd [6] [nM] | koff [6] [s⁻¹] | kon [6] [M⁻¹ s⁻¹]
1 | B1 | 4.65 nM and 4.77 nM | 0.00525 s⁻¹ and 0.00555 s⁻¹ | 1.13e+06 M⁻¹ s⁻¹ and 1.16e+06 M⁻¹ s⁻¹ | 2.07 min and 1.96 min | 4.71 | 4.71 |  |  |  |  |  |  | 
2 | B2 |  |  |  |  | 3.69 |  |  |  |  |  |  |  | 
3 | B3 |  |  |  |  |  |  | 17.1 | 23.6 | 0.00447 | 189000 | 23.6 | 0.00447 | 189000
